The test has as its target T1, SARS-CoV-2 spike ectodomain protein (SARS-CoV-2, UniProt P0DTC2 14-1213).
T1 construct: extracellular domain
The test is described as follows: BLI, immobilized spike ectodomain; avidity reported as 1/Kads. On the technique in general: In BLI a coated tip is dipped into the sample, and binding shifts an interference pattern.

Consider 1 molecule from US20230242623A1 (GEORGIA TECH RESEARCH, published 2023).

B1: 3A7 (antibody, V domains shown)
VH: QVTLKESGPGILQPSQTLSLTCSFSGFSLSTSGMGVSWIRQPSGKGLEWLAHIYWDDDKRYNPSLKSRLTISKDTSSSQVFLKITSVDTVDTATYYCARRGPLITTDGTFDVWGAGTTVTVSS
VL: DIVMTQSRKFMSTSVGDRVSITCKASQDVGTSVAWYQQKPGQSPKLLIYWASTRHTGVPDRFTGSGSGTDFTLTINSVQSEDLADYFCQQYSSYPYTFGGGTKLEMK
notes: also called 3A7 clone
B1 registered a Kd of around 0.01 nM.
